How the values were obtained:
RH41 sarcoma xenografts = assay: In vivo antitumor activity in RH41 sarcoma xenografts; settings: 40 mg/kg, TIWx3, 20 ip
Description: *Tumor growth inhibition and probability values calculated on day 39. ^aVehicle was 80% PEG400, 20% dH2O. ^bVehicle was PBS. ^cAverage weight change for each group is the mean difference between weight at the start of treatment (Day 20) and after the end of treatment (Day 42). TVDT was calculated for a size of 500 mg Abbreviations used are as follows: po, oral route; ip, intraperitoneal route; LCK, gross log cell kill calculated as LCK=T−C/(3.32×TVDT) where T-C is the difference in time in days for the treated tumors (T) to reach a predetermined size (tumor target size) relative to the vehicle control group (C) divided by the tumor volume doubling time (TVDT) multiplied by 3.32.
Tumors were propagated in nude mice. Tumor passages occurred every four weeks for human RH41 xenografts. With regard to efficacy testing human tumor xenografts were implanted in nude mice. All tumor passages were subcutaneous (sc).
Antitumor activity was evaluated in terms of: a) cures, and for the murine tumor models, increases in lifespan reflected by the relative median survival time (MST) of treated (T) versus control (C) groups (i.e. % T/C values); and b) primary tumor growth inhibition determined by calculating the relative median times for T and C mice to grow tumors of a predetermined “target” size (1 gm for all sc tumor models described) and expressed as T-C values, in days. The definition of a cured mouse was one whose tumor was undetectable, or <35 mg, when assessed more than 10 tumor volume doubling times (TVDTs) post-treatment. The activity criterion for tumor inhibition/reduction was a statistically significant delay in primary tumor growth consistent with 1 gross log cell kill (LCK). The following formula was employed to calculate LCK: LCK=T−C/(3.32×TVDT)
Where, TVDT=median time (days) for control tumors to reach target size—median time (days) for control tumors to reach half the target size. […] The maximum tolerated dose (MTD) is defined as the dose level immediately […] which excessive toxicity (i.e. more than one death) occurred. […] Statistical evaluations of data were performed using Gehan's generalized Wilcoxon test (Gehan, Biometrika 52:203-223, 1965). Western Blot Analysis of 385A08-Fc

[1] = system: human plasmacytoma cell line NCI-H929; assay: NCI-H929 cell proliferation assay (serum mediated proliferation); format: cell-based; settings: at all concentrations tested
Description: The human plasmacytoma cell line NCI-H929 (ATCC, Manassas, Va.) was plated in 96 well plates at a concentration of either 10000 or 25000 cells per well in DMEM (Invitrogen, Carlsbad, Calif.) containing 10% fetal bovine serum (Hyclone, Logan, Utah) containing various concentrations of IGF-IR antagonists. Cells were allowed to proliferate for 72 hours at 37° C., 5% CO2. After the proliferation period, cells were exposed to 20 μL of Cell Titer 96 Aqueous Proliferation Reagent (Promega, Madison, Wis.) and allowed to incubate for an additional four hours. Absorbance at 490 nm was measured on a Spectramax Plus 384 (Molecular Devices, Sunnyvale, Calif.), and the resulting data were analyzed using SigmaPlot (Systat Software, Point Richmond, Calif.).

human IGF-IR = molecular target: T1, human IGF-IR (Homo sapiens, UniProt P08069); assay: Surface plasmon resonance (BIAcore) binding kinetics and affinity on immobilized IGF-IR
T1 construct: The extracellular domain of human IGF-IR (aa 1-932) was cloned into a mammalian expression vector; made in house
Description: The binding kinetics of fibronectin-based scaffold proteins binding proteins to the target was measured using BIAcore 2000 or 3000 biosensors (Pharmacia Biosensor). A capture assay was developed utilizing an IGF-IR-Fc fusion. A similar reagent had been described by Forbes et al. (Forbes et al. 2002, European J. Biochemistry, 269, 961-968). The extracellular domain of human IGF-IR (aa 1-932) was cloned into a mammalian expression vector containing the hinge and constant regions of human IgG1. Transient transfection of the plasmid produced a fusion protein, IGF-IR-Fc which was subsequently purified by Protein A chromatography and captured on Protein A immobilized on Biasensor CM5 chips by amine coupling. The kinetic analysis involved the capture of IGF-IR-Fc on Protein A followed by injection of the fibronectin-based scaffold protein in solution and regeneration of the Protein A surface by glycine pH 2.0. Sensorgrams were obtained at each concentration and were evaluated using a program Biaevaluation, BIA Evaluation 2.0 (BIAcore), to determine the rate constants ka (kon) and kd (koff) The dissociation constant, KD was calculated from the ratio of rate constants koff/kon. Typically, a concentration series (2 uM to 0 uM) of purified fibronectin-based scaffold protein was evaluated for binding to protein A captured human IGF-IR-Fc fusion protein.

B1: 385A08-PEG20-385A08: two 385A08 (SEQ ID NO: 203) domains coupled via Cys97 to a linear 20 kDa bifunctional PEG (conjugate)
chain 1: GVSDVPRDLEVVAATPTSLLISWSARLKVARYYRITYGETGGNSPVQEFTVPKNVYTATISGLKPGVDYTITVYAVTRFRDYQPISINYRTEIDKPCQ
chain 2: GVSDVPRDLEVVAATPTSLLISWSARLKVARYYRITYGETGGNSPVQEFTVPKNVYTATISGLKPGVDYTITVYAVTRFRDYQPISINYRTEIDKPCQ
modifications: 20 kDa bifunctional PEG via Cys97
In the case of B1, the “Outcome by (% TGI)” value (RH41 sarcoma xenografts) is reported as “A (A % TGI value of >50% was considered active)”, the “% TGI” value (RH41 sarcoma xenografts; calculated on day 39) is reported as 66% and the LCK (RH41 sarcoma xenografts; gross log cell kill) is reported as 0.6. The “inhibition of cell growth” value [1] was “approximately 100%”, the “faster on-rate (ka) relative to unmodified 385A08” value (human IGF-IR) was “approximately two-fold” and the “off-rate (kd) relative to unmodified 385A08” value (human IGF-IR) was “slightly decreased”. For the same molecule, the ka (human IGF-IR; Table 10, PEGylated variants) was 15 1/M*s × 10^+6 and the kd (human IGF-IR; Table 10, PEGylated variants) was 0.9 1/s × 10^−4.

Reference: patent US11149077B2, “Targeted therapeutics based on engineered proteins for tyrosine kinases receptors, including IGF-IR” (BRISTOL-MYERS SQUIBB COMPANY, priority 2006, dated 2021)
